According to publication PMC4196864:

Target: paclitaxel-stabilized microtubules assembled from purified porcine brain tubulin (porcine) (UniProt P02550)
Test: co-sedimentation

fold lower band intensity in MT pellets than the T758A/T762A mutant: 1.4 fold
Substance: 6xHis/mCherry-tagged XMAP4 phosphomimetic mutant (T758E/T762E) (natural protein)
